The target in assay [1] is T1, Recombinant Human FGFR1 alpha (IIIc) Fc Chimera Protein, CF (R&D systems, 658-FR-050) (human, UniProt P11362 22-376).
T1 construct: bought reagent; not shown: Fc of the bought chimera
T1 sequence (looked up): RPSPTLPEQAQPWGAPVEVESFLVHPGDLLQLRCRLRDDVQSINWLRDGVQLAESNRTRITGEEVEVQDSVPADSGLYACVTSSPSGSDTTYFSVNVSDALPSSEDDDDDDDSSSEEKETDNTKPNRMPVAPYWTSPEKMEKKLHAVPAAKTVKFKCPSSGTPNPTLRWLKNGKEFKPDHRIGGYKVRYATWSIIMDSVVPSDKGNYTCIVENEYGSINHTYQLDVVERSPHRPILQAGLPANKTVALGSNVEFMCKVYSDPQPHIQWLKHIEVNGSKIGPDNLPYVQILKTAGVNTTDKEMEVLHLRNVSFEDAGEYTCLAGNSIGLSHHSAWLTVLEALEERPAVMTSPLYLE
Put plainly: SPR, FGFR1-Fc immobilized, 10 nmol/L peptide. The method, then: (§1) A CM5 sensor chip (Cytiva, 29149603) was set in Biacore-T200 (manufactured by Cytiva) which is a surface plasmon resonance device, and an HBS-EP buffer (Cytiva, BR100826) was added as a running buffer at a flow rate of 10 μL/min to equilibrate the flow channel. Next, 70 μL of a mixed aqueous solution of 0.2 mol/L 1-(3-dimethylaminopropyl)-3-ethylcarbodiimide (EDC) and 0.05 mol/L N-hydroxysuccinimide (NHS) was added to activate the sensor chip. Then, Recombinant Human FGFR 1 alpha (IIIc) Fc Chimera Protein CF (R&D systems, 658-FR-050) prepared at 50 nmol/L in an Acetate 4.5 buffer (Cytiva, BR100350) was added thereto to perform immobilization at about 5000 RU. Thereafter, the blocking treatment was performed with an ethanolamine solution. In addition, in another flow channel of the same sensor chip, blocking treatment was performed immediately after activation without immobilizing FGFR.
A cyclic peptide diluted to 10 nmol/L using HBS-EP was added to each flow channel of the FGFR-immobilized sensor chip produced above at 25° C. for 10 minutes, then HBS-EP was allowed to flow as a running buffer for 30 minutes, and the binding of the cyclic peptide to FGFR was measured. Thereafter, a regeneration treatment of removing the bound cyclic peptide was performed by repeating the flow of a regeneration liquid in which sodium chloride powder was dissolved in Glysine 1.5 (Cytiva, BR100354) to a final concentration of 0.15 mol/L for 1 minute in each flow channel twice. The binding amount of the cyclic peptide was evaluated from the difference between the measured value of Biacore-T200 in the flow channel in which FGFR was immobilized and the measured value of Biacore-T200 in the flow channel in which FGFR was not immobilated, in a case where a 10 nmol/L cyclic peptide was allowed to flow.
(SPR reads the build-up and loss of mass on a sensor chip optically.)

Assay [2] deals with T2, FGFR4 Protein, Human, Recombinant (His Tag) (Sino Biological, 10538-H08H) (human, UniProt P22455 22-369).
T2 construct: bought reagent; not shown: His tag
T2 sequence (looked up): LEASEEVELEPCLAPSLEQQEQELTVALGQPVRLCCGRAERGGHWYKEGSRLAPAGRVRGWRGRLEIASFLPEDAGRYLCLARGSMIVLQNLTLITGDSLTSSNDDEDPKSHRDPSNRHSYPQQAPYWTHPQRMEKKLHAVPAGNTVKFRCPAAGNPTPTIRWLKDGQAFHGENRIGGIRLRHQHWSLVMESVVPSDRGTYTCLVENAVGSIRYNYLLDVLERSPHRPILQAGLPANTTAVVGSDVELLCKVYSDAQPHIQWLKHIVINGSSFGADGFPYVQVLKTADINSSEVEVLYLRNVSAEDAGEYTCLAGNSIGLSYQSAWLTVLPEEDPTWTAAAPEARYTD
As to the kind of experiment: SPR, peptide immobilized, 1 umol/L FGFR. The protocol:
as §1, with “a cyclic peptide” for “Recombinant Human FGFR 1 alpha (IIIc) Fc Chimera Protein CF (R&D systems, 658-FR-050)”, “to 2 mg/mL” for “at 50 nmol/L”, “HBS-EP” for “an Acetate 4.5”, “buffer” for “buffer (Cytiva, BR100350)”, “200” for “5000”
(§2) After various FGFRs (FGFR1 Protein, Human, Recombinant (His Tag) (Sino Biological, 10616-H08H), FGFR3 Protein, Human, Recombinant (ECD, His Tag) (Sino Biological, 16044-H08H), FGFR4 Protein, Human, Recombinant (His Tag) (Sino Biological, 10538-H08H)) diluted with HBS-EP to 1 μmol/L at 25° C. was added to each flow channel of the cyclic peptide-immobilized sensor chip prepared above, for 10 minutes, HBS-EP was allowed to flow as a running buffer for 30 minutes, and the binding of various FGFRs to the cyclic peptide was measured. […] The binding amount of the cyclic peptide was evaluated from the difference between the measured value of Biacore-T200 in the flow channel in which the cyclic peptide was immobilized and the measured value of Biacore-T200 in the flow channel in which the cyclic peptide was not immobilized, in a case where 1 μmol/L FGFR was allowed to flow.
(§3) The binding amount of FGFR evaluated above was normalized to the binding amount of FGFR molecules per one molecule of the cyclic peptide using the molecular weights of the cyclic peptide and FGFR, and the binding affinity to FGFR was evaluated according to the following evaluation criteria.

The target of assay [3] is T3, FGFR3 Protein, Human, Recombinant (ECD, His Tag) (Sino Biological, 16044-H08H) (human, UniProt P22607 23-375).
T3 construct: extracellular domain; bought reagent; not shown: His tag
T3 sequence (looked up): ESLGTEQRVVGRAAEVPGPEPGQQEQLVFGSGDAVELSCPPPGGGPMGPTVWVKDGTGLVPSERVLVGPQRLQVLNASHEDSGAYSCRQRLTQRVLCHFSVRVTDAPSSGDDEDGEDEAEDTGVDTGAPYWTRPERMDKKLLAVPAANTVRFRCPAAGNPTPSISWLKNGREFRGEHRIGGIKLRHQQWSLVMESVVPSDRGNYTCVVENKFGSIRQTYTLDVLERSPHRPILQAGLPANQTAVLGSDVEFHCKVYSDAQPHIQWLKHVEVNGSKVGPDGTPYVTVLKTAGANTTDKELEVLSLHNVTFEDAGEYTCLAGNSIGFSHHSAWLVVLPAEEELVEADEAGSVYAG
As to the kind of experiment: SPR, peptide immobilized, 1 umol/L FGFR. The protocol: as §1, with “a cyclic peptide” for “Recombinant Human FGFR 1 alpha (IIIc) Fc Chimera Protein CF (R&D systems, 658-FR-050)”, “to 2 mg/mL” for “at 50 nmol/L”, “HBS-EP” for “an Acetate 4.5”, “buffer” for “buffer (Cytiva, BR100350)”, “200” for “5000”
as §2, §3

Assay [4] concerns the target T4, FGFR1 Protein, Human, Recombinant (His Tag) (Sino Biological, 10616-H08H) (human, UniProt P11362 22-376).
T4 construct: bought reagent; not shown: His tag
T4 sequence (looked up): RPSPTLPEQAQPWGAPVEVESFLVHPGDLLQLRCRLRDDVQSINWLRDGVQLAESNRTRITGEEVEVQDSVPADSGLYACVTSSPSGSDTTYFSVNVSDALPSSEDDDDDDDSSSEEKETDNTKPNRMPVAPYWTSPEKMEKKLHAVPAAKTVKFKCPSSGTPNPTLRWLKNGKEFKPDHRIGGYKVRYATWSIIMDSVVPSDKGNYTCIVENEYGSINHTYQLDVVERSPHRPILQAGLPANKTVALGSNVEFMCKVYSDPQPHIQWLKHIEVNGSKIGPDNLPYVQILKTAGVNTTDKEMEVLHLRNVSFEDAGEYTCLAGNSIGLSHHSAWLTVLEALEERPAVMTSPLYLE
Put plainly: SPR, peptide immobilized, 1 umol/L FGFR. The protocol: as §1, with “a cyclic peptide” for “Recombinant Human FGFR 1 alpha (IIIc) Fc Chimera Protein CF (R&D systems, 658-FR-050)”, “to 2 mg/mL” for “at 50 nmol/L”, “HBS-EP” for “an Acetate 4.5”, “buffer” for “buffer (Cytiva, BR100350)”, “200” for “5000”
as §2, §3

The values below come from patent publication US20260008818A1, “CYCLIC PEPTIDE OR SALT THEREOF, AND USES THEREOF” (FUJIFILM Corporation, priority 2023, published 2026).

Bridge positions count the residues as written; N and C are the ends. Ends that are not written are not given here. COCH2 = acetyl group that carries the bridge

Turning to HCSYERLQFHGHEAPFRVK(COCH2)VKKK (thioether 2-19; also: acetyl defined on Orn side-chain amine, here on K, chemically synthesized) [SEQ ID NO: 382], the “binding amount (SPR, cyclic peptide molecules bound per one molecule of FGFR at 10 nmol/L peptide)” value in assay [1] is ≥ 0.7 moleculesofthecyclicpeptide/onemoleculeoffgfr. Moreover, the “binding amount (SPR, FGFR molecules bound per molecule of cyclic peptide at 1 umol/L FGFR)” value in assay [2] was ≥ 0.05 moleculesoffgfr/onemoleculeofthecyclicpeptide; in assay [3], 0.01 to 0.05 moleculesoffgfr/onemoleculeofthecyclicpeptide; in assay [4], ≥ 0.05 moleculesoffgfr/onemoleculeofthecyclicpeptide.
